From the domain aggregation screens of Martell et al. (2025)

Experiment: soluble fraction after stress (log2 fold change); higher = more stays soluble; pooled small domains, quantitative proteomics
Settings: stress: 50 degC
Outline: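 Pooled custom libraries of small protein domains were measured in a high-throughput format, with quantitative proteomics as the read-out. Each library was stressed at 50°C. Aggregation propensity is given as the base-two logarithm of the fold change in how much of each protein stays soluble after the stress. Higher values mean a larger share of the protein remains in solution.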

Sequence: HMTEEVIIQNYIGKNFNDVRDELEAKGITVDEPNMKYSDEFKENTIMAQSIKPGQPLKPGGFNSIKFDVS
- soluble fraction (log2): 0.211

Sequence: HMTEFFNMQDMFYFKLTGDVTSKERRQSLGKILGIGYGNAAQMVSRLNNYGITKEEFTNAINEIEKQMEAG
- soluble fraction (log2): -0.775

Sequence: HMTEISGIEKFLASGAINGIGPAMAKKIVAEFGEKTLEIIAKSPNELLKVPGIGKKTAEKISTSYLEQ
- soluble fraction (log2): -0.0669

Sequence: HMTEKEEERTEDLNYYRLNLISMLKSSYPEYLDDEEFISNRSQEAAEAFEDAVRSGSNYLDASAESNRTLY
- soluble fraction (log2): -0.362

Sequence: HMTEKIRLTVDEAGKNQRVDKYISTLLTQFSRSSIKTWIETGNILLDNTRTKPRTLLSPGQVIDIQPRFED
- soluble fraction (log2): -0.643

Sequence: HMTEKIVFNIDGQTGRIDKILADFMTGTSRSQIQAWVKDGNLMVNDKAVKSNYKVQDGDLLELTIPEPEQ
- soluble fraction (log2): -0.171

Sequence: HMTELIEDYVELIGDLIRHRGEARAADIANRMAVSQATVSKMIRRLNELGLVTSKPYRSLFLTDEGQKMAE
- soluble fraction (log2): -0.474

Sequence: HMTELLTPKQRQVFELALREGYYDVPRRTSITEMARLLGVAKSTLSAQMHRMEATVMSTFAEEIRKQ
- soluble fraction (log2): -1.74

Sequence: HMTENIPPVKIEEMRQKWQDIVLLHGVTSGRKIKSGQATYIWLYRNDQNWLLTFNSRHLSQPQV
- soluble fraction (log2): 0.145

Sequence: HMTEPKILTAEESQRLDLILVQQWPELGRRALRELVQQGGVRINGELALKAGQYVQAGERVEVAVP
- soluble fraction (log2): 0.0571

Sequence: HMTEQKNNEQQNAVNEKKQALKQLMEKGKEKGSLSYNEVNALLDKLEFTEDQKAIVYDQLHSEDIELQ
- soluble fraction (log2): 0.193

Sequence: HMTEQLTLVGKTGVTTTDLRPSGKVEVDGKRYDAVADNGAFISKGAHIKVVRYVTGQVYVVPTD
- soluble fraction (log2): 0.0883

Sequence: HMTERIRLHDDIGSWVEKHGATRSALIPVLQGIQRSYNEISEYAMQEVADRLDIHPVEVYSVVSFYSF
- soluble fraction (log2): -0.0419

Sequence: HMTESFEFTMNDLVQNNLIMGSGAKERRIAVGEALGIGYTNAKQFLSRLNHYGITRKEFDDEIEKVNQN
- soluble fraction (log2): -0.158

Sequence: HMTETEIVIGGKYRHYKGGEYELVSIVKHSETLEELVIYKSLSTGEMWARPKSLFVGLVDGQPRYTL
- soluble fraction (log2): -1.85

Sequence: HMTETIPVSERLFRYLFEEKGKRVQKIQQTSHARVRMERSPYSVVVSGTKDAVEAAMESLKATEKELLEA
- soluble fraction (log2): 0.15

Sequence: HMTETPDDLLAALKKNKKAQATFDAFSPSNKKEYILWITEAKTEATRTKRLETAIEWMSEGKARNW
- soluble fraction (log2): -0.222

Sequence: HMTETTTVPKLKGLTKDEAEDAAKSSKIKLEFIDEISKTVEAGVIIKQEKDEGETVNAGDTVKVYVSIGT
- soluble fraction (log2): 0.218

Sequence: HMTEWSIHEVAQRSGVTTRTLRHYDAIGILSPTRTGANGYRYYGPEALVRLQRILLLRDLGLALSDIAE
- soluble fraction (log2): -4.61

Sequence: HMTEYFTIESQEGERIDRYLSEELEDKSRSYIQKLIRDGHVLVDGKTVKAGYRLVAGDNIAITLPEI
- soluble fraction (log2): -0.0879

Sequence: HMTFAPTAIPSLTRPMEELMSWSFTPNEAFILSRINGLWDVRSIAKISPFPEGEVLRVFEKLHDGGLIRW
- soluble fraction (log2): -2.92

Sequence: HMTFNEPSPKEIMDYSLSRGYKVDADAFIDFYRGKAKAYGKEGLWLDGRGRLVKDWRAKLRVVWFKDENKL
- soluble fraction (log2): -1.22

Sequence: HMTGDIGAEAAKAAALAHAGVTESQTAKMKVDRDWDDGRLEYDVEFDVGRTEYEYTIDGVTGAVLEYEQDI
- soluble fraction (log2): 0.0136

Sequence: HMTGDIIKQERKKKNLTQIELAKKVGISRNALINYEAGTRIPPISVQLKLADVLGIDILDLK
- soluble fraction (log2): -0.299

Sequence: HMTGDISRALDQLPADMRTVLILYALEKQRYEDIAQITGVSVGTVKSRLNRARQKLAAILANQREQNE
- soluble fraction (log2): -0.488

Sequence: HMTGDNQTIGGGGFHHVAIRAHDFDASVKFYGETLGFREKIAWGEGDKRAIMMDTGDGNYIEIF
- soluble fraction (log2): 0.197

Sequence: HMTGEDIKKVILREYAREKSLLSIFHELSKVNSNVTLEVIKDIITNIDKLPNDLLQYFKEESSFYQKNKN
- soluble fraction (log2): -0.397

Sequence: HMTGGIWVQIQGAVERPGVYSLPRDSRLKDLLEAAGGFGRDADTEKVNQAARLEDGAMYRVPRQGEG
- soluble fraction (log2): 0.352

Sequence: HMTGGLLVHVAGAVGAPGVVSLPEGARVVDAIEAAGGAREDADTDQLNLARPVVDGEQVRVPVVGEVLE
- soluble fraction (log2): -0.0748

Sequence: HMTGINMSYEEYKAMADIIVPLIKAGHSPYHIVTNHPELNISEKTLYNYIENGIFREFGLLDINL
- soluble fraction (log2): -0.313

Sequence: HMTGIRVYPNPTSSELRFSVATDAALYDATGARLRVVRGSDMMDIRDLASGTYYVRFADGSTQSVVVT
- soluble fraction (log2): -0.198

Sequence: HMTGKLGKIILQPKQTVYGITKKYQISESELRRLNPQLDSHLKIGDEVILPAENIKKFGGNQPVAVS
- soluble fraction (log2): 0.311

Sequence: HMTGKTTLEYLNPLLERGIPVWDYLAKASGKAKEEVQEMVSKGLVPGAEAAKAIADYMGAEFAGSMA
- soluble fraction (log2): 0.0316

Sequence: HMTGKVKWYDADKGFGFVTEDGGRDVYVRKSALPQGVETLKAGQRLEFGIAEGRRGPQALSVR
- soluble fraction (log2): 0.0817

Sequence: HMTGLFSPTEQTRHSKTGATLYSVKLAERIERNAFQSLKKRAKEHDGYYSSFTRSFLFDTPEDAEAFRGT
- soluble fraction (log2): -0.27

Sequence: HMTGMEASLSKLLQGEQFADLRKALIDKGIRKLEAFKRLNLWVFMNRNRLYSIGQRQTVYSTLQRALASE
- soluble fraction (log2): 0.0329

Sequence: HMTGREIDQLFSVVNDLKAKGVGMVFISHHLDEIARIADSVSVLRDGGFVAEVPASTPEKKLVTLMVGRDI
- soluble fraction (log2): -0.208

Sequence: HMTGWINVDKNWYYMNNSGSMARGMINVNNVSYYLDENGKMLSNTTVNVNGTDYRIDASGAMSQI
- soluble fraction (log2): -0.564

Sequence: HMTHEIKIKSHSLFASEGTKYQWYLNNIKINDATSQELEITSPGIYKLEMTNFDGDVIEKQIIVGLTNS
- soluble fraction (log2): -2.94

Sequence: HMTHHGHSIKRIRDMLGIKQETLAAELNMTQQAFSKLEQKEQIEDEMLDKIAKILHVSTEALKT
- soluble fraction (log2): -0.00336

Sequence: HMTHPAHLARIGALIRSARQHEGLTQAQLAELLGTSQSAIHRIEQGGQNITLDMLTRISAALDSEIVTIG
- soluble fraction (log2): -0.921

Sequence: HMTHPQVEAYLDDLARMLADIDPGERDDILASVREHLDAEIAAGHGSDAVVNATLLRLGPPEQVAAAARTN
- soluble fraction (log2): -0.0824

Sequence: HMTIAFPSNDVDAVVGYFESRGFDRTASISTATVILQQAKIDGVKVFELIDTLQGMDKVQLSYIVTEILN
- soluble fraction (log2): 0.03

Sequence: HMTIATLGERIRKLRKERGLTLAELAGDKLSKGMLSLIENNRAKPSMESLEYIAKRLGVEPAELLE
- soluble fraction (log2): 0.176

Sequence: HMTIENTDTFLETLWEQVQRASVDENGIITSRVLIWDEGTKLDEILSWFDKRHSLGALYLQFG
- soluble fraction (log2): -2.47

Sequence: HMTIFGWQTDETGKWYRNADGTFFEAGWKEIDGAKYYFDENGYVKTGWLELDGKDYYFDEEGRYDSSKVR
- soluble fraction (log2): -0.33

Sequence: HMTIGLLISKARTNSGLTQAELATRAGTSQAAIARYESDRVSPSVSTLERVLRAAGEELVISSS
- soluble fraction (log2): -0.0977

Sequence: HMTINPFSTLAVRELEILHYLLNGHRTKEIATNLGLKMNTVSTIKSNIFEKVKADSFTHLLQLAHVHQIS
- soluble fraction (log2): -0.888

Sequence: HMTIQNSILDEIPNIGASRKRAILEAFGSVHRLRKASPEMISAKVEGIGPEMAQAIHDYLVKHPAT
- soluble fraction (log2): 0.19

Sequence: HMTISAQAITPRLEVIKNFVLMEEWDAAQTQLEKLRSFTEIWSLDPLFSAMKKKDGQKISDWITGFIKDNM
- soluble fraction (log2): -1.15

Sequence: HMTISDEAMQAGRDAFIQALVAMGAEKNADAMASIEKALSADPGNKEYLATRDLIKKSMGMKK
- soluble fraction (log2): 0.44

Sequence: HMTISGSDLKAQREALNIPLERIAKETRIRLSILQDLEDEEYSELSSSAQTKGFLRLYADYLSSHKQRLG
- soluble fraction (log2): -0.415

Sequence: HMTITDDETHKVLEEGASRMSEGLTFRDLVDLDRLHLTARGVIQKVLNENRIDADVDTIANMAQKLVARVS
- soluble fraction (log2): -0.0539

Sequence: HMTKAEVLLDLQQRIISEEFLPGSWLVERDLSSEYGLSRTPIREILNKLVILGLISVQKNRGYQVR
- soluble fraction (log2): -1.43

Sequence: HMTKAILTANDVRNGDIVFWTADQRWSTSIDDAAIGYGKDDTDQLADAGKQAEAANTVVGAYLIALR
- soluble fraction (log2): -0.276
